In the Human Domainome abundance scans (Beltran et al. 2025):
± gives the uncertainty stated by the source.

B1: Segment polarity protein dishevelled homolog DVL-3, residues 2 to 81; numbered along this chain, Q92997 (parent)
chain: GETKIIYHLDGQETPYLVKLPLPAERVTLADFKGVLQRPSYKFFFKSMDDDFGVVKEEISDDNAKLPCFNGRVVSWLVSA

Variants of: B1
Assay: abundance fitness (aPCA) (normalised: wild type 0, dead -1); higher = more abundant; growth selection in yeast, the domain comes from the species named
Conditions: Homo sapiens

First: GETKIGYHLDGQETPYLVKLPLPAERVTLADFKGVLQRPSYKFFFKSMDDDFGVVKEEISDDNAKLPCFNGRVVSWLVSA [I6G]
Second: GETKIHYHLDGQETPYLVKLPLPAERVTLADFKGVLQRPSYKFFFKSMDDDFGVVKEEISDDNAKLPCFNGRVVSWLVSA [I6H]
The abundance fitness of the first is lower: -0.625 ± 0.057 for the first, -0.076 ± 0.11 for the second.

Going from GETKIVYHLDGQETPYLVKLPLPAERVTLADFKGVLQRPSYKFFFKSMDDDFGVVKEEISDDNAKLPCFNGRVVSWLVSA [I6V] to GETKIEYHLDGQETPYLVKLPLPAERVTLADFKGVLQRPSYKFFFKSMDDDFGVVKEEISDDNAKLPCFNGRVVSWLVSA [I6E], the abundance fitness rises from -0.135 ± 0.05 to 0.153 ± 0.053.

GETKICYHLDGQETPYLVKLPLPAERVTLADFKGVLQRPSYKFFFKSMDDDFGVVKEEISDDNAKLPCFNGRVVSWLVSA [I6C] and GETKIQYHLDGQETPYLVKLPLPAERVTLADFKGVLQRPSYKFFFKSMDDDFGVVKEEISDDNAKLPCFNGRVVSWLVSA [I6Q] are within error of each other in abundance fitness: -0.467 ± 0.1 for the first, -0.28 ± 0.088 for the second.

Compared with GETKIRYHLDGQETPYLVKLPLPAERVTLADFKGVLQRPSYKFFFKSMDDDFGVVKEEISDDNAKLPCFNGRVVSWLVSA [I6R], GETKILYHLDGQETPYLVKLPLPAERVTLADFKGVLQRPSYKFFFKSMDDDFGVVKEEISDDNAKLPCFNGRVVSWLVSA [I6L] is higher in abundance fitness: -0.728 ± 0.069 for the first, -0.152 ± 0.055 for the second.

Going from GETKIKYHLDGQETPYLVKLPLPAERVTLADFKGVLQRPSYKFFFKSMDDDFGVVKEEISDDNAKLPCFNGRVVSWLVSA [I6K] to GETKITYHLDGQETPYLVKLPLPAERVTLADFKGVLQRPSYKFFFKSMDDDFGVVKEEISDDNAKLPCFNGRVVSWLVSA [I6T], the abundance fitness rises from -0.892 ± 0.13 to -0.132 ± 0.074.

Compared with GETKIYYHLDGQETPYLVKLPLPAERVTLADFKGVLQRPSYKFFFKSMDDDFGVVKEEISDDNAKLPCFNGRVVSWLVSA [I6Y], GETKIMYHLDGQETPYLVKLPLPAERVTLADFKGVLQRPSYKFFFKSMDDDFGVVKEEISDDNAKLPCFNGRVVSWLVSA [I6M] is lower in abundance fitness: 0.248 ± 0.07 for the first, -0.502 ± 0.097 for the second.

First: GETKIPYHLDGQETPYLVKLPLPAERVTLADFKGVLQRPSYKFFFKSMDDDFGVVKEEISDDNAKLPCFNGRVVSWLVSA [I6P]
Second: GETKIFYHLDGQETPYLVKLPLPAERVTLADFKGVLQRPSYKFFFKSMDDDFGVVKEEISDDNAKLPCFNGRVVSWLVSA [I6F]
The abundance fitness of the first is lower: -0.816 ± 0.17 for the first, -0.015 ± 0.08 for the second.

GETKINYHLDGQETPYLVKLPLPAERVTLADFKGVLQRPSYKFFFKSMDDDFGVVKEEISDDNAKLPCFNGRVVSWLVSA [I6N] and GETKISYHLDGQETPYLVKLPLPAERVTLADFKGVLQRPSYKFFFKSMDDDFGVVKEEISDDNAKLPCFNGRVVSWLVSA [I6S] are within error of each other in abundance fitness: -0.451 ± 0.13 for the first, -0.431 ± 0.073 for the second.

GETKIDYHLDGQETPYLVKLPLPAERVTLADFKGVLQRPSYKFFFKSMDDDFGVVKEEISDDNAKLPCFNGRVVSWLVSA [I6D] and GETKIIYTLDGQETPYLVKLPLPAERVTLADFKGVLQRPSYKFFFKSMDDDFGVVKEEISDDNAKLPCFNGRVVSWLVSA [H8T] are within error of each other in abundance fitness: -0.585 ± 0.13 for the first, -0.503 ± 0.1 for the second.

GETKIIYILDGQETPYLVKLPLPAERVTLADFKGVLQRPSYKFFFKSMDDDFGVVKEEISDDNAKLPCFNGRVVSWLVSA [H8I] and GETKIIYSLDGQETPYLVKLPLPAERVTLADFKGVLQRPSYKFFFKSMDDDFGVVKEEISDDNAKLPCFNGRVVSWLVSA [H8S] are within error of each other in abundance fitness: -0.681 ± 0.17 for the first, -0.617 ± 0.095 for the second.

GETKIIYNLDGQETPYLVKLPLPAERVTLADFKGVLQRPSYKFFFKSMDDDFGVVKEEISDDNAKLPCFNGRVVSWLVSA [H8N] and GETKIIYGLDGQETPYLVKLPLPAERVTLADFKGVLQRPSYKFFFKSMDDDFGVVKEEISDDNAKLPCFNGRVVSWLVSA [H8G] are within error of each other in abundance fitness: -0.661 ± 0.17 for the first, -0.668 ± 0.081 for the second.

First: GETKIIYPLDGQETPYLVKLPLPAERVTLADFKGVLQRPSYKFFFKSMDDDFGVVKEEISDDNAKLPCFNGRVVSWLVSA [H8P]
Second: GETKIIYFLDGQETPYLVKLPLPAERVTLADFKGVLQRPSYKFFFKSMDDDFGVVKEEISDDNAKLPCFNGRVVSWLVSA [H8F]
The abundance fitness of the first is lower: -0.225 ± 0.1 for the first, 0.23 ± 0.078 for the second.

GETKIIYMLDGQETPYLVKLPLPAERVTLADFKGVLQRPSYKFFFKSMDDDFGVVKEEISDDNAKLPCFNGRVVSWLVSA [H8M] and GETKIIYLLDGQETPYLVKLPLPAERVTLADFKGVLQRPSYKFFFKSMDDDFGVVKEEISDDNAKLPCFNGRVVSWLVSA [H8L] are within error of each other in abundance fitness: -0.455 ± 0.11 for the first, -0.542 ± 0.076 for the second.

Going from GETKIIYWLDGQETPYLVKLPLPAERVTLADFKGVLQRPSYKFFFKSMDDDFGVVKEEISDDNAKLPCFNGRVVSWLVSA [H8W] to GETKIIYVLDGQETPYLVKLPLPAERVTLADFKGVLQRPSYKFFFKSMDDDFGVVKEEISDDNAKLPCFNGRVVSWLVSA [H8V], the abundance fitness falls from 0.027 ± 0.063 to -0.494 ± 0.075.

GETKIIYELDGQETPYLVKLPLPAERVTLADFKGVLQRPSYKFFFKSMDDDFGVVKEEISDDNAKLPCFNGRVVSWLVSA [H8E] and GETKIIYALDGQETPYLVKLPLPAERVTLADFKGVLQRPSYKFFFKSMDDDFGVVKEEISDDNAKLPCFNGRVVSWLVSA [H8A] are within error of each other in abundance fitness: -1.06 ± 0.21 for the first, -0.772 ± 0.11 for the second.

Compared with GETKIIYYLDGQETPYLVKLPLPAERVTLADFKGVLQRPSYKFFFKSMDDDFGVVKEEISDDNAKLPCFNGRVVSWLVSA [H8Y], GETKIIYCLDGQETPYLVKLPLPAERVTLADFKGVLQRPSYKFFFKSMDDDFGVVKEEISDDNAKLPCFNGRVVSWLVSA [H8C] is lower in abundance fitness: 0.19 ± 0.072 for the first, -1.19 ± 0.3 for the second.

GETKIIYQLDGQETPYLVKLPLPAERVTLADFKGVLQRPSYKFFFKSMDDDFGVVKEEISDDNAKLPCFNGRVVSWLVSA [H8Q] and GETKIIYKLDGQETPYLVKLPLPAERVTLADFKGVLQRPSYKFFFKSMDDDFGVVKEEISDDNAKLPCFNGRVVSWLVSA [H8K] are within error of each other in abundance fitness: -0.747 ± 0.15 for the first, -0.548 ± 0.11 for the second.
